What was measured:
[1] = biological target: Nck1 (Nck1-GFP, GST-Nck1 constructs) SH2 domain (UniProt P16333); assay: GST-Nck SH2 pull-down from lysate; conditions: reference: wild type
GST-Nck SH2, P16333 = biological target: T1, GST-Nck SH2, P16333; assay: GST pull-down, anti-HA immunoblot quantified by ImageJ; conditions: chain shown with the change; 293T cells transiently transfected with Lck and HA-tagged TSAd constructs; lane 7
T1 chain: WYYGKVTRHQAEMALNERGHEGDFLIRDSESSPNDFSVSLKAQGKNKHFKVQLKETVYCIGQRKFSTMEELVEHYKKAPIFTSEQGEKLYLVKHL

**Q.** With “TSAd (T cell specific adaptor protein) (from UniProt Q9NP31) Y280,305F” as the molecule, how does the “binding against the reference” value ([1]; sites Y280,Y305) read?
**A.** Its value is “lost”.

**Q.** For “TSAd (T cell specific adaptor protein) (from UniProt Q9NP31) Y280F”, which “binding against the reference” value ([1]; sites Y280) is on record?
**A.** Its value is “weaker”.

B1: HA-tagged TSAd WT co-expressed with Lck in 293T cells (tyrosine phosphorylated), Q9NP31-1 Y280F; Y290F; Y305F (protein)
chain: MEFPLAQICPQGSHEAPIPTFSTFQITDMTRRSCQNLGYTAASPQAPEAASNTGNAERAEEVPGEGSLFLQAETRAWFQKTQAHWLLQHGAAPAWFHGFITRREAERLLEPKPQGCYLVRFSESAVTFVLTYRSRTCCRHFLLAQLRDGRHVVLGEDSAHARLQDLLLHYTAHPLSPYGETLTEPLARQTPEPAGLSLRTEESNFGSKSQDPNPQYSPIIKQGQAPVPMQKEGAGEKEPSQLLRPKPPIPAKPQLPPEVYTIPVPRHRPAPRPKPSNPIFNEPDEPIAFFAMGRGSPGEAPSNIFVEVEDEGLPATLGHPVLRKSWSRPVPGGQNTGGSQLHSENSVIGQGPPLPHQPPPAWRHTLPHNLSRQVLQDRGQAWLPLGPPQ
**Q.** How did the ratio to parent (GST-Nck SH2, P16333) turn out when B1 was run?
**A.** Its ratio to parent is -0.

— paper PMC4499191
